Earlier results, collected in patent US20200069786A1, “COMPOSITION AND PROCESS FOR PREPARING VACCINE” (TREOS BIO ZRT., priority 2018, published 2020).
Like-named read-outs stand apart in the source and are kept apart here.

B1: HORMAD2 (protein, UniProt Q8N7B1 1-307, looked up)
HORMA domain-containing …: MATAQLSHCITIHKASKETVFPSQITNEHESLKMVKKLFATSISCITYLRGLFPESSYGERHLDDLSLKILREDKKCPGSLHIIRWIQGCFDALEKRYLRMAVLTLYTDPMGSEKVTEMYQFKFKYTKEGATMDFDSHSSSTSFESGTNNEDIKKASVLLIRKLYILMQDLEPLPNNVVLTMKLHYYNAVTPHDYQPLGFKEGVNSHFLLFDKEPINVQVGFVSTGFHSMKVKVMTEATKVIDLENNLFRENSTTEIAHQGLDCDEEEECNDHIQRMNFVCSQQSSECSRKKRKVSEPVKVFIPNRK
B2: PIWIL3 (protein, UniProt Q7Z3Z3 1-882, looked up)
Piwi-like protein 3: MPGRARTRARGRARRRESYQQEAPGGPRAPGSATTQEPPQLQSTPRPLQEEVPVVRPLQPRAARGGAGGGAQSQGVKEPGPEAGLHTAPLQERRIGGVFQDLVVNTRQDMKHVKDSKTGSEGTVVQLLANHFRVISRPQWVAYKYNVDYKPDIEDGNLRTILLDQHRRKFGERHIFDGNSLLLSRPLKERRVEWLSTTKDKNIVKITVEFSKELTPTSPDCLRYYNILFRRTFKLLDFEQVGRNYYTKKKAIQLYRHGTSLEIWLGYVTSVLQYENSITLCADVSHKLLRIETAYDFIKRTSAQAQTGNIREEVTNKLIGSIVLTKYNNKTYRVDDIDWKQNPEDTFNKSDGSKITYIDYYRQQHKEIVTVKKQPLLVSQGRWKKGLTGTQREPILLIPQLCHMTGLTDEICKDYSIVKELAKHTRLSPRRRHHTLKEFINTLQDNKKVRELLQLWDLKFDTNFLSVPGRVLKNANIVQGRRMVKANSQGDWSREIRELPLLNAMPLHSWLILYSRSSHREAMSLKGHLQSVTAPMGITMKPAEMIEVDGDANSYIDTLRKYTRPTLQMGMSCLLVFKVICILPNDDKRRYDSIKRYLCTKCPIPSQCVVKKTLEKVQARTIVTKIAQQMNCKMGGALWKVETDVQRTMFVGIDCFHDIVNRQKSIAGFVASTNAELTKWYSQCVIQKTGEELVKELEICLKAALDVWCKNESSMPHSVIVYRDGVGDGQLQALLDHEAKKMSTYLKTISPNNFTLAFIVVKKRINTRFFLKHGSNFQNPPPGTVIDVELTRNEWYDFFIVSQSVQDGTVTPTHYNVIYDTIGLSPDTVQRLTYCLCHMYYNLPGIIRVPAPCHYAHKLAYLVGQSIHQEPNRSLSTRLFYL
B3: CTNNA2 (protein, UniProt P26232 1-953, looked up)
Catenin alpha-2: MTSATSPIILKWDPKSLEIRTLTVERLLEPLVTQVTTLVNTSNKGPSGKKKGRSKKAHVLAASVEQATQNFLEKGEQIAKESQDLKEELVAAVEDVRKQGETMRIASSEFADDPCSSVKRGTMVRAARALLSAVTRLLILADMADVMRLLSHLKIVEEALEAVKNATNEQDLANRFKEFGKEMVKLNYVAARRQQELKDPHCRDEMAAARGALKKNATMLYTASQAFLRHPDVAATRANRDYVFKQVQEAIAGISNAAQATSPTDEAKGHTGIGELAAALNEFDNKIILDPMTFSEARFRPSLEERLESIISGAALMADSSCTRDDRRERIVAECNAVRQALQDLLSEYMNNTGRKEKGDPLNIAIDKMTKKTRDLRRQLRKAVMDHISDSFLETNVPLLVLIEAAKSGNEKEVKEYAQVFREHANKLVEVANLACSISNNEEGVKLVRMAATQIDSLCPQVINAALTLAARPQSKVAQDNMDVFKDQWEKQVRVLTEAVDDITSVDDFLSVSENHILEDVNKCVIALQEGDVDTLDRTAGAIRGRAARVIHIINAEMENYEAGVYTEKVLEATKLLSETVMPRFAEQVEVAIEALSANVPQPFEENEFIDASRLVYDGVRDIRKAVLMIRTPEELEDDSDFEQEDYDVRSRTSVQTEDDQLIAGQSARAIMAQLPQEEKAKIAEQVEIFHQEKSKLDAEVAKWDDSGNDIIVLAKQMCMIMMEMTDFTRGKGPLKNTSDVINAAKKIAEAGSRMDKLARAVADQCPDSACKQDLLAYLQRIALYCHQLNICSKVKAEVQNLGGELIVSGTGVQSTFTTFYEVDCDVIDGGRASQLSTHLPTCAEGAPIGSGSSDSSMLDSATSLIQAAKNLMNAVVLTVKASYVASTKYQKVYGTAAVNSPVVSWKMKAPEKKPLVKREKPEEFQTRVRRGSQKKHISPVQALSEFKAMDSF
B4: ADAM29 (protein, UniProt Q9UKF5 194-820, looked up)
Disintegrin and …: WIHFRIVEIVVVIDNYLYIRYERNDSKLLEDLYVIVNIVDSILDVIGVKVLLFGLEIWTNKNLIVVDDVRKSVHLYCKWKSENITPRMQHDTSHLFTTLGLRGLSGIGAFRGMCTPHRSCAIVTFMNKTLGTFSIAVAHHLGHNLGMNHDEDTCRCSQPRCIMHEGNPPITKFSNCSYGDFWEYTVERTKCLLETVHTKDIFNVKRCGNGVVEEGEECDCGPLKHCAKDPCCLSNCTLTDGSTCAFGLCCKDCKFLPSGKVCRKEVNECDLPEWCNGTSHKCPDDFYVEDGIPCKERGYCYEKSCHDRNEQCRRIFGAGANTASETCYKELNTLGDRVGHCGIKNATYIKCNISDVQCGRIQCENVTEIPNMSDHTTVHWARFNDIMCWSTDYHLGMKGPDIGEVKDGTECGIDHICIHRHCVHITILNSNCSPAFCNKRGICNNKHHCHCNYLWDPPNCLIKGYGGSVDSGPPPKRKKKKKFCYLCILLLIVLFILLCCLYRLCKKSKPIKKQQDVQTPSAKEEEKIQRRPHELPPQSQPWVMPSQSQPPVTPSQSHPQVMPSQSQPPVTPSQSQPRVMPSQSQPPVMPSQSHPQLTPSQSQPPVTPSQRQPQLMPSQSQPPVTPS
B5: LIPI (protein, UniProt Q6XZB0 16-460, looked up)
Lipase member I: DNKRPCLEFSQLSVKDSFRDLFIPRIETILMMYTRNNLNCAEPLFEQNNSLNVNFNTQKKTVWLIHGYRPVGSIPLWLQNFVRILLNEEDMNVIVVDWSRGATTFIYNRAVKNTRKVAVSLSVHIKNLLKHGASLDNFHFIGVSLGAHISGFVGKIFHGQLGRITGLDPAGPRFSRKPPYSRLDYTDAKFVDVIHSDSNGLGIQEPLGHIDFYPNGGNKQPGCPKSIFSGIQFIKCNHQRAVHLFMASLETNCNFISFPCRSYKDYKTSLCVDCDCFKEKSCPRLGYQAKLFKGVLKERMEGRPLRTTVFLDTSGTYPFCTYYFVLSIIVPDKTMMDGSFSFKLLNQLGMIEEPRLYEKNKPFYKLQEVKILAQFYNDFVNISSIGLTYFQSSNLQCSTCTYKIQSLMLKSLTYPERPPLCRYNIVLKDREEVFLNPNTCTPKNT
B6: FAM133A (protein, UniProt Q8N9E0 1-248, looked up)
Protein FAM133A: MGKRDNRVAYMNPIAMARWRGPTQSVGPTIQDYLNRPRPTWEEVKKQLENKKTGSKALAEFEEKMNENWKKELEKSREKLLSGNESSSKKRERKKKRKKKSCRSSSSSSSSDSSSSSSDSEDEEKKQGKRRKKKKNRSYKSSQSSTHESESESKESVKKKKKSKDETEKEKDVRSLSKKRKKSYPDDKPLSSESSSESDYEEDVQAKKKRRCEEREQAKEKVKKKKKKQHKKHSKKKKKKSGSSHKSR
B7: CTAGE1 (protein, UniProt Q96RT6 1-745, looked up)
cTAGE family member 2: MRPDSHPYGFPWELVIRAAVAGFFAVLFLWRSFRSVTSRLYVRREKKFAVALSGLIEEKCKLLEKFSLVQKEYEGYEVESSLKNASFEKEATEAQSLEATCEKLNRFNSELVHEILCLEKELKEEKSKHSEQNELMADISKRIQSLEDESKSLKSQVAEAKMTFKRFQANEERLEIEIQDAWKENSELQESQKQLLQEAEVWKEQVSELIKQKRTFEDSKVHAEQVLNDKENHIKTLTERLLKMKDGVAMLEEDVTDDDNLELEMNSESEDGAYLDNPPKGALKKLIHAAKLNASLKTLEGERNQIYIQLSEVDKTKEELTEHIKNLQTEQASLQSENTHFESENQKLQQKLKVMTELYQENEMKLYRKLIVEEKCRLEKEEKLSKVDEMISHATEELETYRKRAKDLKEFEKTIHFYQKKIILHEKKAHDNWSAAWTAERNLNDLRKENAHNRQKLTEIEFKIKLLEKDPYGLDVPNTAFGRQHSPYGPSPLGWPSSETRASLYPPTLLEGPLRLSPLLPRGGGRGSRGPGNPPDHQITKERGESSCDRLTDPHRAPSDAGPLAPPWEQDYRMMFPPPGQSYPDSALPPQRQDRFYSNCARLSGPAELRSFNMPSLDKMDGSMPSEMESSRNDTKDNLGNLKVPDSSLPAENEATGPGFVPPPLAPIRGLLFPVDTRGPFIRRGPPFPPPPPGTVFGASPDYFSPRDVPGPPRAPFAMRNVYLPRGFLPYRPPRPAFFPPAPTF
B8: MAGE-B3 (protein, UniProt O15480 1-346, looked up)
Melanoma-associated antigen B3: MPRGQKSTLHAREKRQQTRGQTQDHQGAQITATNKKKVSFSSPLILGATIQKKSAGRSRSALKKPQRALSTTTSVDVSYKKSYKGANSKIEKKQSFSQGLSSTVQSRTDPLIMKTNMLVQFLMEMYKMKKPIMKADMLKIVQKSHKNCFPEILKKASFNMEVVFGVDLKKVDSTKDSYVLVSKMDLPNNGTVTRGRGFPKTGLLLNLLGVIFMKGNCATEEKIWEFLNKMRIYDGKKHFIFGEPRKLITQDLVKLKYLEYRQVPNSNPARYEFLWGPRAHAETSKMKVLEFWAKVNKTVPSAFQFWYEEALRDEEERVQAAAMLNDGSSAMGRKCSKAKASSSSHA

System: TSA
[1] = TSA expression rate in LUNG cancer
[2] = TSA expression rate in LEUKEMIAS

Molecule	Expression Rate (ER) % [1]	Expression Rate (ER) % (TSA expression rate in CRC)	Expression Rate (ER) % [2]	also measured
B1	5%			
B2	7%	96%		TSA Expression Rate (ER) (OVARIAN): 88%
B3			45%	
B4	7%			
B5	0%	0%	6%	Expression Rate (ER) % (TSA expression rate in HEAD and NECK): 0%; Expression Rate (ER) % (TSA expression rate in Kidney): 25%; Expression Rate (ER) % (TSA expression rate in MELANOMA): 0%
B6			83%	
B7		19%	72%	Expression Rate (ER) % (TSA expression rate in BLADDER cancer): 53%
B8	0%			
